Data: patent US20230114801A1 (SYSTIMMUNE, published 2023)

B1: SI-75X5 (bispecific antibody, human IgG1, kappa, L234A L235A)
chain 1: QVQLQESGGRLVQPGEPLSLTCKTSGIDLSSNAIGWVRQAPGKGLEWIGVIFGSGNTYYASWAKGRFTISRSTSTVYLKMNSLRSEDTAIYYCARGGYSSDIWGQGTLVTVSSASTKGPSVFPLAPSSKSTSGGTAALGCLVKDYFPEPVTVSWNSGALTSGVHTFPAVLQSSGLYSLSSVVTVPSSSLGTQTYICNVNHKPSNTKVDKRVEPKSCDKTHTCPPCPAPEAAGGPSVFLFPPKPKDTLMISRTPEVTCVVVDVSHEDPEVKFNWYVDGVEVHNAKTKPREEQYNSTYRVVSVLTVLHQDWLNGKEYKCAVSNKALPAPIEKTISKAKGQPREPQVYTLPPSRDELTKNQVSLSCAVKGFYPSDIAVEWESNGQPENNYKTTPPVLDSDGSFFLVSKLTVDKSRWQQGNVFSCSVMHEALHNHYTQKSLSLSPG
chain 2: QSALTQPASVSGSPGQSITISCTGTSSDVGGYNFVSWYQQHPGKAPKLMIYDVSDRPSGVSDRFSGSKSGNTASLIISGLQADDEADYYCSSYGSSSTHVIFGGGTKVTVLGGGGSGGGGSGGGGSGGGGSQVQLQESGGGLVKPGGSLSLSCAASGFTFSSYWMSWVRQAPGKGLEWVANINRDGSASYYVDSVKGRFTISRDDAKNSLYLQMNSLRAEDTAVYYCARDRGVGYFDLWGRGTLVTVSSGGGGSGGGGSDPQLTQSPSSLSATVGQRVTINCQSSQSVAKNNNLAWFQQKPGKPPKLLIYSASTLAAGVPSRFSGSGSGTQFTLTITRVQSEDFATYYCSARDSGNIQSFGGGTRVEIKRTVAAPSVFIFPPSDEQLKSGTASVVCLLNNFYPREAKVQWKVDNALQSGNSQESVTEQDSKDSTYSLSSTLTLSKADYEKHKVYACEVTHQGLSSPVTKSFNRGECGGDKTHTCPPCPAPEAAGGPSVFLFPPKPKDTLMISRTPEVTCVVVDVSHEDPEVKFNWYVDGVEVHNAKTKPREEQYNSTYRVVSVLTVLHQDWLNGKEYKCAVSNKALPAPIEKTISKAKGQPREPQVYTLPPSRDELTKNQVSLWCLVKGFYPSDIAVEWESNGQPENNYKTTPPVLDSDGSFFLYSKLTVDKSRWQQGNVFSCSVMHEALHNRFTQKSLSLSPG
notes: bi-miniGNC, IgG1; D2 αHER3, D3 αCD3* (Fab); Chain B carries H435R/Y436F (Fc) and R19S (VH of the αHER3 scFv)
B2: SI-75X3 (other)
chain 1: EIVLTQSPSTLSVSPGERATFSCRASQSIGTNIHWYQQKPGKPPRLLIKYASESISGIPDRFSGSGSGTEFTLTISSVQSEDFAVYYCQQNNNWPTTFGPGTKLTVLGGGGSGGGGSGGGGSGGGGSQVQLQQSGPGLVKPSETLSITCTVSGFSLTNYGVHWIRQAPGKGLEWLGVIWSGGNTDYNTPFTSRFTITKDNSKNQVYFKLRSVRADDTAIYYCARALTYYDYEFAYWGQGTLVTVSSGGGGSGGGGSEVQLVESGGGLVQPGGSLRLSCAASGFTISTNAMSWVRQAPGKGLEWIGVITGRDITYYASWAKGRFTISRDNSKNTLYLQMNSLRAEDTAVYYCARDGGSSAITSNNIWGQGTLVTVSSASTKGPSVFPLAPSSKSTSGGTAALGCLVKDYFPEPVTVSWNSGALTSGVHTFPAVLQSSGLYSLSSVVTVPSSSLGTQTYICNVNHKPSNTKVDKRVEPKSCDKTHTCPPCPAPEAAGGPSVFLFPPKPKDTLMISRTPEVTCVVVDVSHEDPEVKFNWYVDGVEVHNAKTKPREEQYNSTYRVVSVLTVLHQDWLNGKEYKCAVSNKALPAPIEKTISKAKGQPREPQVYTLPPSRDELTKNQVSLSCAVKGFYPSDIAVEWESNGQPENNYKTTPPVLDSDGSFFLVSKLTVDKSRWQQGNVFSCSVMHEALHNHYTQKSLSLSPG
chain 2: QSALTQPASVSGSPGQSITISCTGTSSDVGGYNFVSWYQQHPGKAPKLMIYDVSDRPSGVSDRFSGSKSGNTASLIISGLQADDEADYYCSSYGSSSTHVIFGGGTKVTVLGGGGSGGGGSGGGGSGGGGSQVQLQESGGGLVKPGGSLSLSCAASGFTFSSYWMSWVRQAPGKGLEWVANINRDGSASYYVDSVKGRFTISRDDAKNSLYLQMNSLRAEDTAVYYCARDRGVGYFDLWGRGTLVTVSSGGGGSGGGGSDVVMTQSPSTLSASVGDRVTINCQASESISSWLAWYQQKPGKAPKLLIYEASKLASGVPSRFSGSGSGTEFTLTISSLQPDDFATYYCQGYFYFISRTYVNSFGGGTKVEIKRTVAAPSVFIFPPSDEQLKSGTASVVCLLNNFYPREAKVQWKVDNALQSGNSQESVTEQDSKDSTYSLSSTLTLSKADYEKHKVYACEVTHQGLSSPVTKSFNRGECGGDKTHTCPPCPAPEAAGGPSVFLFPPKPKDTLMISRTPEVTCVVVDVSHEDPEVKFNWYVDGVEVHNAKTKPREEQYNSTYRVVSVLTVLHQDWLNGKEYKCAVSNKALPAPIEKTISKAKGQPREPQVYTLPPSRDELTKNQVSLWCLVKGFYPSDIAVEWESNGQPENNYKTTPPVLDSDGSFFLYSKLTVDKSRWQQGNVFSCSVMHEALHNRFTQKSLSLSPG
notes: tri-miniGNC; D1 αEGFR, D2 αHER3, D3 αCD3 (Fab); also called tri-miniGNC (SI-75X3)
B3: SI-75X2 (bispecific antibody, human IgG1, kappa, L234A L235A)
chain 1: EVQLVESGGGLVQPGGSLRLSCAASGFTISTNAMSWVRQAPGKGLEWIGVITGRDITYYASWAKGRFTISRDNSKNTLYLQMNSLRAEDTAVYYCARDGGSSAITSNNIWGQGTLVTVSSASTKGPSVFPLAPSSKSTSGGTAALGCLVKDYFPEPVTVSWNSGALTSGVHTFPAVLQSSGLYSLSSVVTVPSSSLGTQTYICNVNHKPSNTKVDKRVEPKSCDKTHTCPPCPAPEAAGGPSVFLFPPKPKDTLMISRTPEVTCVVVDVSHEDPEVKFNWYVDGVEVHNAKTKPREEQYNSTYRVVSVLTVLHQDWLNGKEYKCAVSNKALPAPIEKTISKAKGQPREPQVYTLPPSRDELTKNQVSLSCAVKGFYPSDIAVEWESNGQPENNYKTTPPVLDSDGSFFLVSKLTVDKSRWQQGNVFSCSVMHEALHNHYTQKSLSLSPG
chain 2: B2 chain 2
notes: bi-miniGNC; D2 αHER3, D3 αCD3 (Fab); also called bi-miniGNC (SI-75X2)
B4: SI-75X1 (bispecific antibody, human IgG1, kappa, L234A L235A)
chain 1: B2 chain 1
chain 2: DVVMTQSPSTLSASVGDRVTINCQASESISSWLAWYQQKPGKAPKLLIYEASKLASGVPSRFSGSGSGTEFTLTISSLQPDDFATYYCQGYFYFISRTYVNSFGGGTKVEIKRTVAAPSVFIFPPSDEQLKSGTASVVCLLNNFYPREAKVQWKVDNALQSGNSQESVTEQDSKDSTYSLSSTLTLSKADYEKHKVYACEVTHQGLSSPVTKSFNRGECGGDKTHTCPPCPAPEAAGGPSVFLFPPKPKDTLMISRTPEVTCVVVDVSHEDPEVKFNWYVDGVEVHNAKTKPREEQYNSTYRVVSVLTVLHQDWLNGKEYKCAVSNKALPAPIEKTISKAKGQPREPQVYTLPPSRDELTKNQVSLWCLVKGFYPSDIAVEWESNGQPENNYKTTPPVLDSDGSFFLYSKLTVDKSRWQQGNVFSCSVMHEALHNRFTQKSLSLSPG
notes: bi-miniGNC; D1 αEGFR, D3 αCD3 (Fab)

Assays:
Assay in all cases: BLI (Octet), binder on AHC sensor, 100 nM human antigen, 1:1 fit
human CD3 = target: T1, human CD3 (human, UniProt P07766 23-126; P04234 22-105)
T1 construct: also called His-tagged human CD3; human CD3 (Acro CDD-H52W1)

human HER3 = target: T2, human HER3 (human, UniProt P21860 20-643)
T2 construct: Soluble antigen in Octet; bought; also called human HER3 (Acro ER3-H5223)

human EGFR = target: T3, human EGFR (human, UniProt P00533 25-645, limits assumed)
T3 construct: Soluble antigen in Octet; construct not described

Binder | Kd (human CD3) [nM] | Kd (human HER3) [nM] | Kd (human EGFR) [nM]
B1 | 44.4 | 139 | 
B2 | 18.2 | 146 | 8.47
B3 | 27.8 | 162 | 
B4 | 24 |  | 8.11
